Data reported in patent US5650488A, “Polypeptide inhibitor of the replication of HSV” (British Technology Group Limited, priority 1991, dated 1997).

Target: T1, TRF/Vmw 65/CFF complex (Homo sapiens, UniProt P51610)
T1 construct: A nuclear extract of HeLa cells was prepared; from tissue; host or cells: HeLa cell nuclear extract (TRF, CFF)
Test: Peptide inhibition of quaternary complex assembly (gel retardation with HeLa nuclear extract, purified Vmw 65 and 32P-labelled TAATGARAT probe)
Format: biochemical, HSV-1
Parameters: key to Level of Inhibition: "+++" indicates a high level inhibition of complex formation; "++" indicates a lower level and so on; "-" indicates no inhibition of complex formation
Experimental: A nuclear extract of HeLa cells was prepared exactly as described by Dignam et al., Nucl. Acids. Res. 11 1475-1489, (1983) (This is a standard protocol for the preparation of extracts containing cellular DNA binding proteins). Polypeptides from Vmw 65 amino acids were synthesised by Cambridge Research Biochemicals Ltd., Cambridge, UK, under contract, in accordance with the sequence set forth above. 1 μl volumes of phosphate buffered saline containing increasing amounts (100 ng, 500 ng, 1 μg, 2.5 μg, 5μg) of the polypeptide (amino acids 360-367) was added to a standard amount of HeLa cell nuclear extract (1 μl extract per 2 μg polypeptide). After incubation at 20° C. for 30 minutes a 1 μl sample of Vmw 65 protein, purified as described by P. O'Hare et al., EMBO J. 7: 4231-4238 (1988) was added to the extract polypeptide mixtures and incubation continued for a further 5 minutes in a buffer containing 25 mM HEPES pH 7.9, 1 mM EDTA, 5 mM DTT, 100 mM KCl, 0.05% NP40 10% glycerol, and 2 μg of salmon sperm DNA. A ^32 P radioactively labelled probe present in excess and encompassing nucleotides -171 to -149 (numbered starting upstream of the site of mRNA transcription: the TAATGARAT sequence is at -162 to -154) of the immediate-early IE110K gene of HSV-1 was then added and incubation continued for a further 25 minutes. […]

T1 sequence (P51610 whole entry, one chain of several): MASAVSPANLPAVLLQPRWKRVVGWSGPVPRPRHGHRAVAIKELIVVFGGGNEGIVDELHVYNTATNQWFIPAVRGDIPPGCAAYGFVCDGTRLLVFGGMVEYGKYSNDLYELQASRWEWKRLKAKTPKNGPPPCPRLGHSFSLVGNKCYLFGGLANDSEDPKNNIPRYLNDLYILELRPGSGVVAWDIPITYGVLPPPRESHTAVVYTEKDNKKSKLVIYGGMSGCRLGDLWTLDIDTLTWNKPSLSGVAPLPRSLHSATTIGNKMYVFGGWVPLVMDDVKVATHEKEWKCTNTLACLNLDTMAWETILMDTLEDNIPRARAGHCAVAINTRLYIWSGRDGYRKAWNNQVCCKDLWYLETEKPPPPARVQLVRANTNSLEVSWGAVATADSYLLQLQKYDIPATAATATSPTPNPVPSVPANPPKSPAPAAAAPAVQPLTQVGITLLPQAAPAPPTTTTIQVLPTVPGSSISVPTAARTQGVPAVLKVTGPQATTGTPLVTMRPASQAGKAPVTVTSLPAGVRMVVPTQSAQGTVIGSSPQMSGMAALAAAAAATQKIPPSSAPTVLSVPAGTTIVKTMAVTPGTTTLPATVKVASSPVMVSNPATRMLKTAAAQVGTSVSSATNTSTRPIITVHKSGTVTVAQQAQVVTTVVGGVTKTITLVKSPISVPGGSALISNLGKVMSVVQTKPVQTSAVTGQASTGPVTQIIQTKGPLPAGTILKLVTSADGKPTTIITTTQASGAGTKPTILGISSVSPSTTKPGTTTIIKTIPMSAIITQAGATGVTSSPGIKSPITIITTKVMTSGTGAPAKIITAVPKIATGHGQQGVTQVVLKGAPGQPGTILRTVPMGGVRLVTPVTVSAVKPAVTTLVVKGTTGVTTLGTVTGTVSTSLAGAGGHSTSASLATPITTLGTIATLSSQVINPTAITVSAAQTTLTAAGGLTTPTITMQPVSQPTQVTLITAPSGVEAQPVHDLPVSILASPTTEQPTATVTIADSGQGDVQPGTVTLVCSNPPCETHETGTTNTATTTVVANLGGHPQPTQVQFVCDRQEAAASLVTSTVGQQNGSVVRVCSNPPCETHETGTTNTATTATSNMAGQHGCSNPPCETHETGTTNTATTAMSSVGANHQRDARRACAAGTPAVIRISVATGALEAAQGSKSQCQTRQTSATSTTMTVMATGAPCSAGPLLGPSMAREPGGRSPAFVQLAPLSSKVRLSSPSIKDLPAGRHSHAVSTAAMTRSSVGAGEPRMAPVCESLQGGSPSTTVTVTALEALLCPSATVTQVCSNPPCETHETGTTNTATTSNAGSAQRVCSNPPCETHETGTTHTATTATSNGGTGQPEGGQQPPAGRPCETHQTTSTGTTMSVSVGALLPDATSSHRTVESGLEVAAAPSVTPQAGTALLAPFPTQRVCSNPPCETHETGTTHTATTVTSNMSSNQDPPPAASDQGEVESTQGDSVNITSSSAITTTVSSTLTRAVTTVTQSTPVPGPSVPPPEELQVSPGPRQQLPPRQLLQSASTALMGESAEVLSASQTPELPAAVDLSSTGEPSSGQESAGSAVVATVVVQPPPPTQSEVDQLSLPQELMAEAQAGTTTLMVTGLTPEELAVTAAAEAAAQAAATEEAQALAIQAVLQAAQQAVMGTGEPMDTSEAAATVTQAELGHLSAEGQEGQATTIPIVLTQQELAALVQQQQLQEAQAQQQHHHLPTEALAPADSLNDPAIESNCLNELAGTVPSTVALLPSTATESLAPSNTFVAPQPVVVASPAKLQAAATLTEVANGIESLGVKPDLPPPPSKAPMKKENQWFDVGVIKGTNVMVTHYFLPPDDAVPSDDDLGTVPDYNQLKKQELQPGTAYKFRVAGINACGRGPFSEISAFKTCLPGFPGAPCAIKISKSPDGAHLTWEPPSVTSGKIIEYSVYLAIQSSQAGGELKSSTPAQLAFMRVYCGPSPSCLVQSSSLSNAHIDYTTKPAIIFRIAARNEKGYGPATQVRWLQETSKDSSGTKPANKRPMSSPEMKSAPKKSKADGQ

With “355-367: polypeptide of region 355-367 of Vmw 65; 360-367 inhibitory region with 355-359 flanking stabilizing region” as the substance, how does the “Level of Inhibition” value (inhibition of complex formation, experiment of Example 1 repeated with various Vmw-65 polypeptides) read?
Its value is “+++”.

And the “inhibiting complex formation (result in words)” value (summary of the Table)?
The value was “effective”.
